Experimental findings from patent US6824991B2, “Human bad polypeptides, encoding nucleic acids and methods of use” (IDUN Pharmaceuticals Inc., priority 1996, dated 2004) are described below.

Experiment [1] has as its target T1, Bcl-XL (Homo sapiens, UniProt Q07817).
T1 construct: expressed in transfected cells; host or cells: yeast strain EGY191
Briefly: yeast two-hybrid assay, human Bad bait with Bcl-XL prey. The class given is binding. The following applies: yeast strain EGY191, LexA-Bad bait, B42 prey, FIG. 3. From the text: (§1) To assess whether Bcl-2 family members bind to or otherwise interact with human Bad and to map their binding domains, a yeast two-hybrid system was employed using the above described clones. Briefly, the full length human Bad sequence was subcloned into the yeast 2-hybrid vector pEGE202, or “bait-vector” to express Bad as a fusion protein with the DNA-binding protein LexA (Ruden et al., Nature (1991) 350:426-430). Human Bcl-2, Bcl-X, Bax, Bak and Bad were similarly cloned into the yeast 2-hybrid vector pJG4-5, or “prey-vector” to expressed these Bcl-2 family members as fusion proteins with the transcriptional activator B42 (Gyuris et al., Cell (1993) 75:791-803). Briefly, the full length human Bad sequence was amplified by PCR and subcloned into the bait-vector. For the PCR reaction we used the following primers: 5′ATCAGTGAATTCACTATGTTCCAGATCCCA GAC3′ (SEQ ID NO: 4) and 5′ATCGATCTCGAGTCACTGGGAGGGGGCGGA GCT3′ (SEQ ID NO: 5). […]
(§2) To determine if human Bad binds to any of the above Bcl-2 family members, the Bad-bait plasmid was cotransformed with every prey plasmid and the reporter plasmid p18-34 into the yeast strain EGY191. […] The reaction was stopped with 0.4 M NaOH and the plate was read at an OD 420 nm. Protein-protein interaction was measured as beta-galactosidase activity using the following equation: OD 420:(OD 600×0.1 ml×ONPG reaction time).

Experiment [2] deals with T2, Bad (Homo sapiens, UniProt Q92934).
T2 construct: expressed in transfected cells; host or cells: yeast strain EGY191
T2 sequence (Q92934 1-168): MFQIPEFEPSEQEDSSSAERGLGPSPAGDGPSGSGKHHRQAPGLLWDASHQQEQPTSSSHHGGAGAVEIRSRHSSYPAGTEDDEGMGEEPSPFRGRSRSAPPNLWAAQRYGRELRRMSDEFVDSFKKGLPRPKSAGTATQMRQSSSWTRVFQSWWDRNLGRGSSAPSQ
Kind of experiment: yeast two-hybrid assay, human Bad bait with Bad prey. The note with it: yeast strain EGY191, LexA-Bad bait, B42 prey, FIG. 3. Type of experiment: binding.
From the text: as §1, §2

For experiment [3], the target named is T3, Bax (Homo sapiens, UniProt Q07812).
T3 construct: expressed in transfected cells; host or cells: yeast strain EGY191
Kind of experiment: yeast two-hybrid assay, human Bad bait with Bax prey. The class given is binding. The note with it: yeast strain EGY191, LexA-Bad bait, B42 prey, FIG. 3.
From the text: as §1, §2

Experiment [4] deals with T4, Bak (Homo sapiens, UniProt Q16611).
T4 construct: expressed in transfected cells; host or cells: yeast strain EGY191
T4 sequence (Q16611 1-190 limits assumed): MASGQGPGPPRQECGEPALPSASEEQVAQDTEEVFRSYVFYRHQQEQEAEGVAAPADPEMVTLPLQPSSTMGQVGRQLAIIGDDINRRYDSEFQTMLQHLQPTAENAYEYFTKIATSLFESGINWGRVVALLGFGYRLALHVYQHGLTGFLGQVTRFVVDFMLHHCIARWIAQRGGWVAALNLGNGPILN
Kind of experiment: yeast two-hybrid assay, human Bad bait with Bak prey. The class given is binding. The note with it: yeast strain EGY191, LexA-Bad bait, B42 prey, FIG. 3.
From the text: as §1, §2

Experiment [5] has as its target T5, Bcl-2 (Homo sapiens, UniProt P10415).
T5 construct: expressed in transfected cells; host or cells: yeast strain EGY191
Kind of experiment: yeast two-hybrid assay, human Bad bait with Bcl-2 prey. The class given is binding. The note with it: yeast strain EGY191, LexA-Bad bait, B42 prey, FIG. 3.
From the text: as §1, §2

Experiment [6] deals with GST-Bcl-2 (Homo sapiens, UniProt P10415). Kind of experiment: ELISA-type binding assay, plate-coated 6HBad with GST-Bcl-2. The following applies: anti-GST detection, FIG. 4. In general terms: ELISA stands for enzyme-linked immunosorbent assay.
Experiment [7] addresses T6, GST-Bcl-XL (Homo sapiens, UniProt Q07817).
T6 construct: made in house; host or cells: E. coli XL1-Blue (pGEX constructs); E. coli BL21 pLysS (6HBad)
Briefly: ELISA-type binding assay, plate-coated 6HBad with GST-Bcl-XL. The note with it: FIG. 4. The text has this: To generate fusion proteins for these screening assays, Bad and Bcl-xL were cloned into pET-15b (Novagen) and pGEX 4T1 (Pharmacia) vectors, respectively. The pET15b-bad construct was made as follows. Full length bad cDNA was amplified by PCR using cDNA BM1 as template and primers containing NdeI (5′) and XhoI (3′) restriction sites (5′ primer: 5′-GGGAATTCCATATGTTCCAGATCCCAGAG-3′ (SEQ ID NO: 10)); 3′ primer: 5′-TACAGTCTCGAGTCACTGGGAGGGGGCGGAGCT-3′ (SEQ ID NO: 11)). The PCR product was then digested with NdeI/XhoI and ligated into the NdeI and XhoI sites of pET15b. The above primer sequences were chosen such that the bad ORF sequence would be in frame with 5′ vector sequence encoding a six residue Histidine tag. The final construct was termed pET-15 6H Bad. […]

T6 sequence (Q07817 1-211 limits assumed): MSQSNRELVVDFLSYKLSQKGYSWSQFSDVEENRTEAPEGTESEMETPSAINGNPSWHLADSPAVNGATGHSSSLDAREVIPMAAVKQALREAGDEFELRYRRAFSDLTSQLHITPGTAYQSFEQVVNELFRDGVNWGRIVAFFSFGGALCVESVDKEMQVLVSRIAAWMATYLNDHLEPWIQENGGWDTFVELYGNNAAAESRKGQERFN
T5 sequence (P10415 1-218 limits assumed): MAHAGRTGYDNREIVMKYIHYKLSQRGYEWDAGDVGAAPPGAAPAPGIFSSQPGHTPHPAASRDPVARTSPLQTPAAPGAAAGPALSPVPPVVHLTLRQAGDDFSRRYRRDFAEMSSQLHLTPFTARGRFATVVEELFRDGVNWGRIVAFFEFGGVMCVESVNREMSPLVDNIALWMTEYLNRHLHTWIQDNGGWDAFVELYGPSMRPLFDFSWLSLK
GST-Bcl-2, sequence (P10415 whole entry): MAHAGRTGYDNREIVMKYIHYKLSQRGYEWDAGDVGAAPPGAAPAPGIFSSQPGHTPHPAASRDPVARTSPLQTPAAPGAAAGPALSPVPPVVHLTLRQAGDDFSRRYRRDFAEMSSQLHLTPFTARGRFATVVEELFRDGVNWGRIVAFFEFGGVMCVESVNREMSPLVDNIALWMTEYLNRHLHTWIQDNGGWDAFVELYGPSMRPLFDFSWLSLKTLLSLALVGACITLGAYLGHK
T3 sequence (Q07812 1-174 limits assumed): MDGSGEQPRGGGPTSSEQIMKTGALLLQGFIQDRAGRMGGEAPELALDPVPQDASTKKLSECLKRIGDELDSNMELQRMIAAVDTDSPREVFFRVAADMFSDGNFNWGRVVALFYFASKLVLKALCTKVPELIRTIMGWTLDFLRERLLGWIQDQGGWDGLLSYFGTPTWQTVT
T1 sequence (Q07817 1-212 limits assumed): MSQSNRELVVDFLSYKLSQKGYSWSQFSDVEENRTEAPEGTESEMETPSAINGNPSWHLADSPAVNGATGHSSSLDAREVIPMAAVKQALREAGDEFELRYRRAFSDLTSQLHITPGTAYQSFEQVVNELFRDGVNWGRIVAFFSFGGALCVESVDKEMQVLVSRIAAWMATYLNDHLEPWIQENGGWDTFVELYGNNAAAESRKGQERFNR

B1: human Bad: human Bcl-xL/Bcl-2 associated death promoting polypeptide, SEQ ID NO:2, encoded by cDNA clone BM1 (protein, listed as Homo sapiens)
chain: T2 sequence (Q92934 1-168)
Regarding B1, the “protein-protein interaction with Bcl-XL (beta-galactosidase activity)” value in experiment [1] is reported as “interacts”. In addition, the “protein-protein interaction with itself (beta-galactosidase activity)” value in experiment [2] is “no interactions were observed”. The “protein-protein interaction with Bax (beta-galactosidase activity)” value in experiment [3] is “no interactions were observed”. Moreover, the “protein-protein interaction with Bak (beta-galactosidase activity)” value in experiment [4] is given as “no interactions were observed”. The “protein-protein interaction with Bcl-2 (beta-galactosidase activity)” value in experiment [5] was “interacts”.

B2: 6HBad: full length human Bad with a six residue Histidine tag, expressed from pET-15 6H Bad in E. coli (protein)
chain: T2 sequence (Q92934 1-168)
modifications: left off: small tags and cut ends
Take B2: the “interaction with GST-Bcl-2 in ELISA” value in experiment [6] was “interacts”. In addition, the “relative binding affinity to GST-Bcl-xL in ELISA” value in experiment [7] (compared with GST-Bcl-2 and GST-Bax) was “highest affinity”. For the same molecule, the “interaction with GST-Bcl-XL in ELISA” value in experiment [7] (plate-coated 6HBad, anti-GST detection) is “interacts”.
